The values below are quoted from earlier work in PMC2656815.

The target in the data set is CRF1 receptor N-domain (Homo sapiens) (UniProt P34998).
Chain of UniProt P34998 (P34998 24-119): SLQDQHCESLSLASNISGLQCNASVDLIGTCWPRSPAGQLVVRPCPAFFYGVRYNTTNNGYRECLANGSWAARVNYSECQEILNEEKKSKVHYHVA

Regarding CRF (from UniProt P06850), the Kd is 50 nM.
